{"source": "patent US20240336672A1", "about": "(INSTITUT PASTEUR, published 2024)", "binders": {"B1": {"name": "Cv2.1169 (recombinant human IgG1) (antibody)", "heavy": "QVQLVQSGPEVKKPGTSVKVSCKASGFTFTTSAVQWVRQARGQRLEWIGWIVVGSGNTNYAQKFQERVTITRDMSTTTAYMELSSLRSEDTAVYYCAAPYCSGGTCLDGFDIWGQGTMVTVSSASTKGPSVFPLAPSSKSTSGGTAALGCLVKDYFPEPVTVSWNSGALTSGVHTFPAVLQSSGLYSLSSVVTVPSSSLGTQTYICNVNHKPSNTKVDKKVEPKSCDKTHTCPPCPAPELLGGPSVFLFPPKPKDTLMISRTPEVTCVVVDVSHEDPEVKFNWYVDGVEVHNAKTKPREEQYNSTYRVVSVLTVLHQDWLNGKEYKCKVSNKALPAPIEKTISKAKQPREPQVYTLPPSRDELTKNQVSLTCLVKGFYPSDIAVEWESNGQPENNYKTTPPVLDSDGSFFLYSKLTVDKSRWQQGNVFSCSVMHEALHNHYTQKSLSLSPGK", "light": "not shown", "notes": "also called Cv2.1169 IgG"}, "B2": {"name": "Cv2.3194 (recombinant human IgG1) (antibody, V domains shown)", "VH": "EVQLVESGGGLIQPGGSLRLSCAASGITVTSNYMSWVRQAPGKGLEWVSVIYPGGSTFYADSVKGRFTISRDNSKNTLYLQMNSLRAEDTAVYYCARDLVVYGMDVWGQGTTVTVSS", "VL": "EIVLTQSPGTLSLSPGERATLSCRASQSVSSSYLAWYQQKPGQAPRLLIYGASSRATGIPGRFSGSGSGTDFTLTISRLEPEDFAIYYCQQGVTFGGGTKVEIKR"}}, "experiment_in_all_cases": "cell-based or functional assay", "key": {"[1]": {"target": "T1, SARS-CoV-2 spike, Delta variant (B.1.617.2), on virus or pseudotyped particles (SARS-CoV-2)"}, "[2]": {"target": "SARS-CoV-2 spike, Omicron BA.1 variant, on virus (SARS-CoV-2)"}, "[3]": {"target": "SARS-CoV-2 spike, Alpha variant (B.1.1.7), on virus or pseudotyped particles (SARS-CoV-2)"}, "[4]": {"target": "T1, SARS-CoV-2 spike, Delta variant …", "remark": "listed apart in the source"}, "[5]": {"target": "SARS-CoV-2 spike, Delta+ variant, on pseudotyped particles (SARS-CoV-2)"}, "[6]": {"target": "SARS-CoV-2 spike, Omicron BA.1 variant, on virus (SARS-CoV-2)", "remark": "listed apart in the source"}, "[7]": {"target": "SARS-CoV-2 spike, Omicron BA.2 variant, on virus (SARS-CoV-2)"}}, "note": "Several values for one entry are separate records, joined by “and”; a condition that tells them apart may be missing. Equal entries are not always repeated."}
{"binder": "B1", "values": [{"measurement": "S-Fuse IC50", "setting": "[1]", "result": 0.00446, "unit": "µg/mL"}, {"measurement": "S-Fuse IC50", "setting": "[2]", "result": "0.253 µg/mL and 0.212 µg/mL"}, {"measurement": "neutralization IC50", "setting": "[2]", "result": "~0.25", "unit": "µg/mL"}, {"measurement": "Pseudoneutralization IC50", "setting": "[3]", "result": 0.0055, "unit": "µg/mL"}, {"measurement": "Pseudoneutralization IC90", "setting": "[3]", "result": 0.024, "unit": "µg/mL"}, {"measurement": "S-Fuse neutralization IC50", "setting": "[3]", "result": 0.0016, "unit": "µg/mL"}, {"measurement": "S-Fuse neutralization IC90", "setting": "[3]", "result": 0.004, "unit": "µg/mL"}, {"measurement": "Pseudoneutralization IC50", "setting": "[4]", "result": 0.008, "unit": "µg/mL"}, {"measurement": "Pseudoneutralization IC90", "setting": "[4]", "result": 0.0341, "unit": "µg/mL"}, {"measurement": "S-Fuse neutralization IC50", "setting": "[4]", "result": 0.0021, "unit": "µg/mL"}, {"measurement": "S-Fuse neutralization IC90", "setting": "[4]", "result": 0.0064, "unit": "µg/mL"}, {"measurement": "Pseudoneutralization IC50", "setting": "[5]", "result": 0.0036, "unit": "µg/mL"}, {"measurement": "Pseudoneutralization IC90", "setting": "[5]", "result": 0.0149, "unit": "µg/mL"}, {"measurement": "S-Fuse neutralization IC50", "setting": "[6]", "result": 0.265, "unit": "µg/mL"}, {"measurement": "S-Fuse neutralization IC90", "setting": "[6]", "result": 7.59, "unit": "µg/mL"}, {"measurement": "S-Fuse neutralization IC50", "setting": "[7]", "result": 0.332, "unit": "µg/mL"}, {"measurement": "S-Fuse neutralization IC90", "setting": "[7]", "result": 9.69, "unit": "µg/mL"}]}
{"binder": "B2", "values": [{"measurement": "S-Fuse IC50", "setting": "[2]", "result": 0.0242, "unit": "µg/mL"}, {"measurement": "Pseudoneutralization IC50", "setting": "[3]", "result": 0.0347, "unit": "µg/mL"}, {"measurement": "Pseudoneutralization IC90", "setting": "[3]", "result": 0.132, "unit": "µg/mL"}, {"measurement": "S-Fuse neutralization IC50", "setting": "[3]", "result": 0.0043, "unit": "µg/mL"}, {"measurement": "S-Fuse neutralization IC90", "setting": "[3]", "result": 0.0054, "unit": "µg/mL"}, {"measurement": "Pseudoneutralization IC50", "setting": "[4]", "result": 0.0544, "unit": "µg/mL"}, {"measurement": "Pseudoneutralization IC90", "setting": "[4]", "result": 0.115, "unit": "µg/mL"}, {"measurement": "S-Fuse neutralization IC50", "setting": "[4]", "result": 0.0066, "unit": "µg/mL"}, {"measurement": "S-Fuse neutralization IC90", "setting": "[4]", "result": 0.0547, "unit": "µg/mL"}, {"measurement": "Pseudoneutralization IC50", "setting": "[5]", "result": 0.0206, "unit": "µg/mL"}, {"measurement": "Pseudoneutralization IC90", "setting": "[5]", "result": 0.089, "unit": "µg/mL"}, {"measurement": "S-Fuse neutralization IC50", "setting": "[6]", "result": 0.0242, "unit": "µg/mL"}, {"measurement": "S-Fuse neutralization IC90", "setting": "[6]", "result": 0.709, "unit": "µg/mL"}, {"measurement": "S-Fuse neutralization IC50", "setting": "[7]", "result": 0.0405, "unit": "µg/mL"}, {"measurement": "S-Fuse neutralization IC90", "setting": "[7]", "result": 0.582, "unit": "µg/mL"}]}
